One assay concerns the target T1, soluble recombinant DSG2 (Homo sapiens, UniProt Q14126).
T1 construct: Western blot using soluble recombinant DSG2 as a probe; purchased Leinco Technologies, Inc. (St. Louis, MO)
T1 sequence (Q14126 50-609 limits assumed): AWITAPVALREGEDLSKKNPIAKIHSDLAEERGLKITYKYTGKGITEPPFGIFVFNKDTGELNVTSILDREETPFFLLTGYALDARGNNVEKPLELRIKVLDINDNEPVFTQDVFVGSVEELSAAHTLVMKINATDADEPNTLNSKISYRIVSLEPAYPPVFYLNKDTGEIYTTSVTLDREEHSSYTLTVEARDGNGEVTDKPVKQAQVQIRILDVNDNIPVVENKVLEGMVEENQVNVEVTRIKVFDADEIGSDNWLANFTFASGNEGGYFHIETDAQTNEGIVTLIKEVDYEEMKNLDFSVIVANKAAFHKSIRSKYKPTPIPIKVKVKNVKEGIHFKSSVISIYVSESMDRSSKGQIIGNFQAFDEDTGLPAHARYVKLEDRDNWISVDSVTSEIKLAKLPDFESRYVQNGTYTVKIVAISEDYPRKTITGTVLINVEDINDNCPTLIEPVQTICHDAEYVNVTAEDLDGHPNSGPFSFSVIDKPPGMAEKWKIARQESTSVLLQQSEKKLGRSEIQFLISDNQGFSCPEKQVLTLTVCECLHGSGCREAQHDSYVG
Briefly: Western blot of dimeric Ad3 fiber knob mutants with soluble recombinant DSG2 as probe. It counts as binding. The note with it: dimerized knob mutants compared to JO-1. The source says:
FIG. 1A-1F. Residues found to be critically involved in binding to DSG2. FIG. 1A) Shown are the amino acid sequences of the Ad3 and Ad14p1 fiber knob. Beta sheets present in the Ad3 knob (PDB accession number 1H7Z_A) and Ad14 knob (PDB: 3F0Y_A) are indicated by lines. Black arrows indicate residues within the Ad3 fiber knob which, when mutated individually, ablate or reduce binding to DSG2. […] FIG. 1B) Schematic structure of dimeric Ad3 fiber knob mutants. The fiber knob domain and one shaft motif was fused through a flexible linker to a homodimerizing K-coil domain (41). The proteins are self-dimerizing and can be purified by His-Ni-NTA affinity chromatography. FIG. 1C-FIG. 1F) Analysis of binding of dimeric Ad3 fiber knob mutants to soluble DSG2. FIG. 1C and FIG. 1D) Coomassie staining. 10 μg of purified Ad3 fiber knob (unboiled) were loaded per lane. Trimeric forms of the fiber knobs are indicated by an arrow. The gel contained SDS and the loading buffer containing DTT, which caused the disassembly of dimers of trimeric fiber knobs as previously reported (41). FIG. 1E and FIG. 1F): Western blot using soluble recombinant DSG2 as a probe, followed by anti-DSG2-mAb and anti-mouse IgG-HRP. For comparison, JO-1 (0.5 μg/lane) is shown. The Western blots were scanned and signals were quantified.
Western Blot: Mini-PROTEAN precast gels (BIO-RAD, Hercules, CA) with 4-15% gradient polyacrylamide were used. A total of 1 μg protein mixed with 2× loading buffer (10 mM Tris-HCl, pH6.8, 200 mM DTT, 4% SDS, 20% glycerol, 0.2% bromophenol blue) was loaded per lane. Samples were either boiled (B) for 5 min or loaded unboiled (UB). The following running buffer was used: 25 mM Tris, pH8.3, 0.192 M glycine, 0.1% SDS. After electrophoresis, proteins were transferred to nitrocellulose and incubated with recombinant human DSG2 protein and anti-DSG2 antibodies as described previously (42). The Western blots were scanned and quantified using the ImageJ 1.32 software (National Institutes of Health, Bethesda, MD). JO-1 band intensity was set as 100%. […]

The subject of the next assay is Ad3-GFP virus. Put plainly: Competition of Ad3-GFP virus infection on HeLa cells. In kind it is cell-based, adenovirus serotype 3. How it is done:
(§1) FIG. 3A-3D. Competition of Ad3 virus by dimerized Ad3 knob mutants. FIG. 3A) Relative attachment of ^3H-labeled Ad3 virus in the presence of dimeric fiber knob mutants. 1.8×10^5 HeLa cells were incubated with Ad3 knob mutants at a concentration of 2.5 and 100 μg/ml on ice for 1 hour. Then 400 pfu/cell of ^3H-Ad3 virus was added on ice for another hour. Unbound virus particles were washed away. Attachment of virus particles incubated with PBS was taken as 100%. N=3. FIG. 3B1-3B2) Competition of Ad3-GFP virus infection on HeLa cells. 1.5×10^5 HeLa cells were seeded into 24 well plates. Cells were incubated with the Ad3 knob mutants at increasing concentrations for one hour at room temperature. 100 pfu/cell of Ad3-GFP virus were then added and GFP expression was analyzed 18 hours later by flow cytometry. FIG. 3B1) percentage of GFP positive cells. FIG. 3B2) mean fluorescence intensity. N=3. The standard deviation was less than 10%. FIG. 3C) Relative attachment of ^3H-labeled Ad3 virus in the presence of dimeric fiber knob mutants with multiple mutations. The study was performed as described in FIG. 3B) The standard deviation was less than 10%. FIG. 3D) Competition of Ad3-GFP virus infection on HeLa cells. The study was performed as described in FIG. 3C) The standard deviation was less than 10%.
FIG. 9A1-9C. Analysis of dimeric Ad3 fiber knob mutants with increased affinity to DSG2. FIG. 9A1-9A2) Competition of Ad3-GFP virus infection on HeLa cells with dimeric affinity-enhanced mutant Y250F and JO-1 (dimeric wt Ad3 fiber knob). The experimental setting is as described for FIG. 3C. FIG. 9A1) percentage of GFP positive cells. FIG. 9A2) mean fluorescence intensity. N=3. The standard deviation was less than 10%. […] 100 pfu/cell of Ad3GFP virus were then added and GFP expression was analyzed 18 hours later. […]
Functional validation. […] Transduction was measured based on GFP expression (FIG. 3B). […] Dimeric Ad3 knob mutants with combined mutations were also analyzed for their ability to compete with Ad3 virus for attachment (FIG. 3C) and infection (FIG. 3D).

A further assay has as its system 3H-labeled Ad3 virus. Briefly: Competition of 3H-labeled Ad3 virus attachment to HeLa cells. It counts as cell-based, adenovirus serotype 3. How it is done: as §1, with “The study was performed as described in FIG. 3B) The standard deviation was less than 10%. FIG. 3D) Competition of Ad3-GFP virus infection on HeLa cells. The study was performed as described in FIG. 3C) The standard deviation was less than 10%.” left out
Competition assays. […] After the last wash, the supernatant was removed and the cell-associated radioactivity was determined by a scintillation counter. The number of VP bound per cell was calculated by using the virion specific radioactivity and the number of cells.

For the next assay, the target named is T2, DSG2 (Homo sapiens, UniProt Q14126).
T2 construct: Western blot using soluble recombinant DSG2 as a probe; purchased Leinco Technologies, Inc. (St. Louis, MO)
T2 sequence (Q14126 50-609 limits assumed): T1 sequence (Q14126 50-609 limits assumed)
Put plainly: Surface plasmon resonance of Ad3 fiber knobs on immobilized DSG2. It counts as binding. The note with it: knobs without dimerization domain. The protocol: FIG. 7A-7B. SPR analysis of non-dimerized Ad3 fiber knob interactions with DSG2. FIG. 7A) DSG2 was immobilized on sensorchips, and background was automatically subtracted from the control flow cell. The Ad3 fiber knobs (w/o dimerization domain: “noDD”) were injected for 3 minutes at 2.5 μg/ml followed by a 2.5 minutes dissociation period. FIG. 7B) Summary of SPR data. […] The extracted data are resumed in the table. Wt=Ad3 fiber knob without mutations FIG. 8A-8G. Electron microscopy and 3D structure of Ad3 fiber knob mutant JO-2.
Surface Plasmon Resonance: Acquisitions were done on a BIAcore 3000 instrument. HBS-N (GE-Healthcare, Pittsburgh, PA) supplemented with 2 mM CaCl2) was used as running buffer in all experiments at a flow rate of 5 [l/min. Immobilization on CM4 sensorchip (BIAcore) was performed using DSG2 at 10 μg/ml diluted in 10 mM Acetate buffer pH 4.5 injected for 10 minutes on ethyl(dimethylaminopropyl) carbodiimide (EDC)/N-Hydroxysuccinimide (NHS) activated flow-cell. A control flow-cell was activated by (EDC/NHS) and inactivated by ethanolamine. Different concentrations of Ad3 fiber knob proteins were injected for 3 minutes association followed by 2.5 minutes dissociation time, and the signal was automatically subtracted from the background of the ethanolamine deactivated EDC-NHS flow cell. Kinetic and affinity constants were calculated using the BIAeval software.
On the technique in general: Surface plasmon resonance follows binding to a sensor surface in real time, without labels.

The mark [1] stands for this setting: even at concentrations of 200 ug/ml.

Positions count from the first letter of the chain named. Numbers in names are those of the source.

B1: F265L (protein)
chain: MKVSALKEKVSALKEKVSALKEKVSALKEKVSALKEGSGGGSGGGSGGGSNSIALKNNTLWTGPKPEANCIIEYGKQNPDSKLTLILVKNGGIVNGYVTLMGASDYVNTLFKNKNVSINVELYFDATGHILPDSSSLKTDLELKYKQTADFSARGFMPSTTAYPFVLPNAGTHNENYIFGQCYYKASDGALLPLEVTVMLNKRLPDSRTSYVMTFLWSLNAGLAPETTQATLITSPFTFSYIREDD
On to B1, for which the “DSG2 binding in Western blot, in words” value in the assay with soluble recombinant DSG2 is “almost completely ablated”. Besides, the “Inhibition of Ad3-GFP infection of HeLa cells, in words” value with Ad3-GFP virus (pre-incubation with knob, GFP expression) is recorded as “least reduced”.

B2: N186D, D261N, L296R: dimeric Ad3 fiber knob with a combination of all three N186D, D261N, and L296R (protein)
chain: B1 chain with N113D, D188N, L192F, L223R
As to B2, the “DSG2 binding in Western blot, in words” value with soluble recombinant DSG2 is on record as “highest level of ablation”. Moreover, in the assay on Ad3-GFP virus (setting [1]), the “Block of Ad3 infection” value was “did not block”. The “Inhibition of attachment in the presence of dimeric knob (JO-1 = 100%)” value with 3H-labeled Ad3 virus (Ad3 virus attachment to HeLa cells, N=3, averages) is reported as 18.5%. For the same molecule, the “Block of Ad3 binding (attachment)” value in the assay with 3H-labeled Ad3 virus (setting [1]) is “did not block”.

B3: N293S/noDD (protein)
chain: NKLCSKLGNGLTFDSSNSIALKNNTLWTGPKPEANCIIEYGKQNPDSKLTLILVKNGGIVNGYVTLMGASDYVNTLFKNKNVSINVELYFDATGHILPDSSSLKTDLELKYKQTADFSARGFMPSTTAYPFVLPNAGTHNENYIFGQCYYKASDGALFPLEVTVMLNKRLPDSRTSYVMTFLWSLSAGLAPETTQATLITSPFTFSYIREDD
modifications: left off: small tags and cut ends
Turning to B3, in the assay with DSG2, the “association rate to DSG2, in words” value was “lowest when compared to other mutants” and the “dissociation rate, in words” value is on record as “slower dissociation rate”.

Source of the values: patent US12466859B2, “Desmoglein 2 (DSG2) binding proteins and uses therefor” (UNIVERSITY OF WASHINGTON THROUGH ITS CENTER FOR …, priority 2013, dated 2025).
